Measurements as given in patent US20070065896A1, “Methods and kits for quantifying metabolites or analytes” (priority 2003, published 2007).

Tests used:
[1] = Kinetic properties of recombinant enzymes; assay type: biochemical; conditions: ± SD, n in brackets
From the text: (§1) Assayed according to Kredich and Tomkins (Journal of Biological Chemistry 241, 4955-4965, 1966)

[2] = Specific activities of recombinant enzymes towards different substrates (Kredich and Tomkins); assay type: biochemical
From the text: Specific activities (micromol/min/mg protein) towards different substrates
as §1

[3] = substrate O-succinyl-L-homoserine

B1: PA3107: Recombinant N-terminal His-tagged O-acetyl-L-homoserine thiol lyase from Pseudomonas aeruginosa, encoded by gene PA3107 (MetZ, Genbank AAA83435) (protein, UniProt P55218 1-403, looked up)
O-succinylhomoserine …: MTQDWDAGRLDSDLEGAAFDTLAVRAGQRRTPEGEHGEALFTTSSYVFRTAADAAARFAGEVPGNVYSRYTNPTVRTFEERIAALEGAEQAVATASGMSAILALVMSLCSSGDHVLVSRSVFGSTISLFDKYFKRFGIQVDYPPLSDLAAWEAACKPNTKLFFVESPSNPLAELVDIAALAEIAHAKGALLAVDNCFCTPALQQPLKLGADVVIHSATKYIDGQGRGMGGVVAGRGEQMKEVVGFLRTAGPTLSPFNAWLFLKGLETLRIRMQAHSASALALAEWLERQPGIERVYYAGLPSHPQHELARRQQSGFGAVVSFDVKGGRDAAWRFIDATRMVSITTNLGDTKTTIAHPATTSHGRLSPEDRARAGIGDSLIRVAVGLEDLDDLKADMARGLAAL
modifications: N-terminal His tag
[1]; Km for Na2S, determined with 15 mM O-succinyl-L-homoserine
  Km: 800 ± 200 µM
[1]; Km for O-succinyl-L-homoserine
  Km: 4400 ± 1000 µM
[1]; substrate Na2S
  Vmax: 174.2 ± 39.8 (3) μmol/min/mg protein
[1]; [3]
  Vmax: 180.4 ± 21.0 (3) μmol/min/mg protein
[2]; substrate O-acetyl-L-homoserine
  Specific activity: <0.1 micromol/min/mg protein
[2]; substrate O-acetyl-serine
  Specific activity: <0.1 micromol/min/mg protein
[2]; [3]
  Specific activity: 139 micromol/min/mg protein
